Measurements taken from patent US20260207798A1, “CYCLIC PEPTIDES AS PET IMAGING AGENTS OF GRANZYME B” (priority 2022, published 2026).
Bridge positions count the residues as written; N and C are the ends. Square brackets hold non-standard residues; d marks the D form. NOTA‑1 = 1,4,7-triazacyclononane-N,N',N''-triacetic acid phenyl thiourea; Pro(trans-4-Ph) = O=C(O)[C@@H]1C[C@@H](c2ccccc2)CN1; Trp(7-Me) = Cc1cccc2c(C[C@H](N)C(=O)O)c[nH]c12; Pro(trans-4-F) = O=C(O)[C@@H]1C[C@@H](F)CN1; Pro(cis-4-F) = O=C(O)[C@@H]1C[C@H](F)CN1; Phe(4-F) = N[C@@H](Cc1ccc(F)cc1)C(=O)O; Phe(4-Me) = Cc1ccc(C[C@H](N)C(=O)O)cc1; Pro(4S-Me) = C[C@@H]1CN[C@H](C(=O)O)C1; Pro(4R-Me) = C[C@H]1CN[C@H](C(=O)O)C1

Experiments:
[1] = target: T1, Human Granzyme B (Homo sapiens, UniProt P10144); format: in vivo; design: Ten million human peripheral blood mononuclear cell (PBMC) were engrafted in immunocompromised NOG (NOD/Shi-scid/IL-2Rγ) mice; endogenous in cells; host or cells: human PBMC (donor-derived) engrafted in NOG mice; conditions: for uptake (SUVmean) in lung, liver and bone, GvHD model versus NOG control: 18F-labeled peptides, i.v., mice, static PET/CT 1 h after injection
T1 sequence (P10144 21-247): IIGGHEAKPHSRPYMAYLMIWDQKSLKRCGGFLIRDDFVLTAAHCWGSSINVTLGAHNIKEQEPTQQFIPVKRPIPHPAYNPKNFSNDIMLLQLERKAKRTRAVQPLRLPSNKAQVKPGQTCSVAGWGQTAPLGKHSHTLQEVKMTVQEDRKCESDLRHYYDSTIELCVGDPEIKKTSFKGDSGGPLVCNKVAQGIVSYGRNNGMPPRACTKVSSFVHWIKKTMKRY
Method: Diseased model: Graft versus host disease (GvHD) model was selected to evaluate radiolabeled granzyme-B peptides due to presence of human granzyme-B after onset of disease. Ten million human peripheral blood mononuclear cell (PBMC) were engrafted in immunocompromised NOG (NOD/Shi-scid/IL-2Rγ) mice. Body weight was monitored routinely, once the mice started to lose weight (indication of onset of disease), PET/CT scans were performed. To determine target specificity, NOG mice without human PBMC were used as control. […] Mice were intravenously injected with approximately 150 uCi (35 Ci/mmol) of ^18F-labeled peptides and 45-minute whole body static PET/CT scans were performed 1 h after injection. Attenuation correction was performed using low-dose CT scan.

[2] = rhesus monkey, in vivo
Method: Healthy non-human primate: A 3 h dynamic PET/CT scan was performed in a healthy male rhesus monkey to determine whole body biodistribution and clearance properties in an additional species. Approximately 6 mCi of ^18F-labeled anti-granzyme-B peptide was intravenously injected in the animal. Attenuation correction was performed using low-dose CT scan. Regions of interests (ROI) were manually drawn over tissues of interest to determine mean standardized uptake value (SUVmean).

[3] = target: T1, Human Granzyme B; assay: Binding of scrambled control peptide to human granzyme-B (method not given); design: Ten million human peripheral blood mononuclear cell (PBMC) were engrafted in immunocompromised NOG (NOD/Shi-scid/IL-2Rγ) mice; endogenous in cells; host or cells: human PBMC (donor-derived) engrafted in NOG mice
[4] = target: T2, human Granzyme B (human, UniProt P10144 21-247); assay: SPR, Biacore 8k+, hGranzyme B captured on SA chip, single cycle kinetics, 1:1 model; Compound 69a, observed m/z 912.6
T2 construct: Captured on a Series S Streptavidin chip for SPR; also called hGranzyme B; GzmB
T2 sequence (P10144 21-247 limits assumed): as the sequence (P10144 21-247) above
Method: (§1) The kinetics of test peptide binding to human Granzyme B (hGranzyme B) was determined by SPR. All experiments were performed at 25° C. using the Biacore 8k+ instrument (Cytiva, Marlborough, MA). The Biacore 8k+ Insight Evaluation Software Version 3.0 was used to fit the data with a 1:1 binding model to determine the association rate constant kₐ (M⁻¹s⁻¹, where “M” ~equals molar and “s” ~equals seconds) and the dissociation rate constant kd (s⁻¹). These rate constants were used to calculate the equilibrium dissociation constant. KD (M)=kd/kₐ.
(§2) To measure the binding kinetics of peptides of interest, surfaces were prepared by a capture method to a Series S Streptavidin (SA) chip using a 1×HBS-EP+ running buffer (Cytiva). hGranzyme B was diluted to 10 μg/mL in IX HBS-EP+ and flowed over spot 2 of each flow cell on the chip at a flow rate of 10 ul/min for 20 s to achieve a level of capture of ~1100 RU. […] Binding kinetics were measured using single cycle kinetics at 25° C. by injecting 5 concentrations with 3-fold serial dilutions of test peptides from 0.01 μM to 1 μM. […]
(§3) Peptide dilution series included 2 zero concentration points (no compound) which were averaged and subtracted from the peptide concentration injection as DMSO control responses. […] Corrected response data were analyzed using the Biacore 8k+ Evaluation Software Version 3.0 according to the manufacturer. […]

[5] = target: T2, human Granzyme B; assay: SPR, Biacore 8k+, hGranzyme B captured on SA chip, single cycle kinetics, 1:1 model; Compound 41a, observed m/z 912.9
Method: as §1, §2, §3

[6] = target: T2, human Granzyme B; assay: SPR, Biacore 8k+, hGranzyme B captured on SA chip, single cycle kinetics, 1:1 model; Compound 66a, observed m/z 912.5
Method: as §1, §2, §3

[7] = target: T2, human Granzyme B; assay: SPR, Biacore 8k+, hGranzyme B captured on SA chip, single cycle kinetics, 1:1 model; Compound 40a, observed m/z 915.0
Method: as §1, §2, §3

[8] = target: T2, human Granzyme B; assay: SPR, Biacore 8k+, hGranzyme B captured on SA chip, single cycle kinetics, 1:1 model; Compound 83a, observed m/z 913.2
Method: as §1, §2, §3

[9] = target: T2, human Granzyme B; assay: cell-based or functional assay
[10] = target: T2, human Granzyme B; assay: SPR, Biacore 8k+, hGranzyme B captured on SA chip, single cycle kinetics, 1:1 model; Compound 38a, observed m/z 914.7
Method: as §1, §2, §3

[11] = target: T2, human Granzyme B; assay: SPR, Biacore 8k+, hGranzyme B captured on SA chip, single cycle kinetics, 1:1 model; Compound 86a, observed m/z 912.9
Method: as §1, §2, §3

[12] = target: T2, human Granzyme B; assay: SPR, Biacore 8k+, hGranzyme B captured on SA chip, single cycle kinetics, 1:1 model; Compound 62a, observed m/z 914.7
Method: as §1, §2, §3

[13] = target: T2, human Granzyme B; assay: SPR, Biacore 8k+, hGranzyme B captured on SA chip, single cycle kinetics, 1:1 model; Compound 25a, observed m/z 905.8
Method: as §1, §2, §3

[14] = target: T2, human Granzyme B; assay: SPR, Biacore 8k+, hGranzyme B captured on SA chip, single cycle kinetics, 1:1 model; Compound 42a, observed m/z 944.0
Method: as §1, §2, §3

With “*F.N.F.E.D.Q.S.A.D.T.W.Q.P.*C.G.G.K(^18F-AlF-NOTA-1).NH2 [Compound 11a]” the “uptake (SUVmean) in lung, liver and bone, GvHD model versus NOG control” value [1] was “significantly higher uptake in lung, liver, and bone in GvHD model than NOG control”, the “kidney and bladder uptake difference” value ([1]; in vivo) was “No significant difference was observed between the kidney and bladder” and the “primary tissue of excretion” value ([1]; in vivo) was “kidney was the primary tissue through which the peptide was excreted”. The route of excretion [2] was “primarily excreted through renal route”, the blood pool clearance ([2]; iv) was “rapid blood pool clearance” and the uptake in kidneys ([2]; iv) was “high uptake in kidneys within first 20 minutes of injection”.

For “*F.Q.W.Q.A.S.N.E.D.D.T.P.F.*C.G.G.K(NOTA-1)·NH2) ({CH2CO}-FQWQASNEDDTPFCGGK(NOTA‑1)-NH2; thioether N-14) [scrambled peptide, 18F-labeled scrambled peptide used as negative control, reference compound]”, the “uptake (SUVmean) in lung, liver and bone, GvHD model versus NOG control” value [1] was “No significant difference was observed between lung, liver, and bone in GvHD model and NOG control” and the “binding to human granzyme-B” value [3] was “minimal/no binding”.

With {CH2CO}-FNFEDQS[Pro(4S-Me)]DTWQPCG-NH2 (thioether N-14) [Compound 69a] the Kd [4] was 17.2 nM.

{CH2CO}-FNFEDQSPDTWQ[Pro(4S-Me)]CG-NH2 (thioether N-14) [Compound 41a] showed a Kd [5] of 2.5 nM.

{CH2CO}-FNFEDQSPDT[Trp(7-Me)]QPCG-NH2 (thioether N-14) [Compound 66a] gave a Kd [6] of 11.1 nM.

In the case of {CH2CO}-FN[Phe(4-F)]EDQSPDTWQPCG-NH2 (thioether N-14) [Compound 40a], the Kd [7] is reported as 1.8 nM.

{CH2CO}-FNFEDQS[Pro(4R-Me)]DTWQPCG-NH2 (thioether N-14) [Compound 83a] gave a Kd [8] of 48 nM.

B1: Compound 38a (peptide)
peptide: {CH2CO}-FNFEDQS[Pro(trans-4-F)]DTWQPCG-NH2
modifications: thioether N-14
SMILES: C[C@@H](O)[C@@H]1NC(=O)[C@H](CC(=O)O)NC(=O)[C@@H]2C[C@@H](F)CN2C(=O)[C@H](CO)NC(=O)[C@H](CCC(N)=O)NC(=O)[C@H](CC(=O)O)NC(=O)[C@H](CCC(=O)O)NC(=O)[C@H](Cc2ccccc2)NC(=O)[C@H](CC(N)=O)NC(=O)[C@H](Cc2ccccc2)NC(=O)CSC[C@@H](C(=O)NCC(N)=O)NC(=O)[C@@H]2CCCN2C(=O)[C@H](CCC(N)=O)NC(=O)[C@H](Cc2c[nH]c3ccccc23)NC1=O
For B1, the “Human Granzyme B IC50 (fluorogenic substrate enzyme inhibition assay)” value [9] was under 8 nM and the Kd [10] was 0.7 nM.

For {CH2CO}-FN[Phe(4-Me)]EDQSPDTWQPCG-NH2 (thioether N-14) [Compound 86a], the Kd [11] was 579 nM.

For {CH2CO}-FNFEDQS[Pro(cis-4-F)]DTWQPCG-NH2 (thioether N-14) [Compound 62a], the Kd [12] was 6.7 nM.

B2: Compound 25a (peptide)
peptide: {CH2CO}-FNFEDQSPDTWQPCG-NH2
modifications: thioether N-14
SMILES: C[C@@H](O)[C@@H]1NC(=O)[C@H](CC(=O)O)NC(=O)[C@@H]2CCCN2C(=O)[C@H](CO)NC(=O)[C@H](CCC(N)=O)NC(=O)[C@H](CC(=O)O)NC(=O)[C@H](CCC(=O)O)NC(=O)[C@H](Cc2ccccc2)NC(=O)[C@H](CC(N)=O)NC(=O)[C@H](Cc2ccccc2)NC(=O)CSC[C@@H](C(=O)NCC(N)=O)NC(=O)[C@@H]2CCCN2C(=O)[C@H](CCC(N)=O)NC(=O)[C@H](Cc2c[nH]c3ccccc23)NC1=O
In the case of B2, the “Human Granzyme B IC50 (fluorogenic substrate enzyme inhibition assay)” value [9] is reported as under 8 nM and the Kd [13] is reported as 2.8 nM.

In the case of {CH2CO}-FNFEDQSPDTWQ[Pro(trans-4-Ph)]CG-NH2 (thioether N-14) [Compound 42a], the Kd [14] is reported as 2.6 nM.
